Source: the supplement of paper PMC10567573

B1: TRIM39 (parent)
chain: CKACITRWWEDLERDFPCPVCRKT
B2: APBB1IP (parent)
chain: SQVSMWDQRWQDHQPLLPITDVP

Variants of: B1
Test: protein stability index of a GFP-peptide fusion (GPS, HEK-293T) (PSI 1-6); higher = more stable
Settings: c terminus: a fixed tail appended
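Further: lentivirally expressed fusions sorted by FACS into six bins by GFP to DsRed ratio, PSI derived from sequencing read proportions per bin multiplied by bin number.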

Protein stability index of substitutions, site by site:
P19: G 2.86; K 2.69; V 2.94; T 3.35; S 3.47; Y 2.27
E13: M 2.95; G 3.79; L 3.15; W 2.92; S 3.63; Q 3.94; Y 3.79
T6: P 3.5; R 3.42
T24: C 2.75; D 4.83; R 3.67; N 3.61; Q 4.21; G 4.24
K2: N 4.4; H 4.08; S 4.59; G 3.59; Y 4.23
C18: Q 2.53; F 2.34; T 1.39; I 1.79; P 2.25
F16: K 4.48; Y 3.7; N 3.54; G 4.05; C 2.32; D 4.42; T 4.37
C1: A 1.94; N 1.67; S 1.68; T 2.06; M 2.26; Y 1.72; Q 2.3; I 1.27
W9: V 4.31; I 3.65; Q 4.69; P 4.3; D 4.55; H 5.16
W8: C 4.15; H 4.66; P 5.08; M 4.62; L 4.19
C4: H 3.14; E 1.88; D 1.75
C21: W 2.18; V 1.52; M 1.56; Y 3.73; L 1.62; G 1.4; N 2.39
P17: T 3.97; V 4.35; S 4.2; I 3.97; H 4
A3: T 4.85; N 4.16; F 3.17; G 4.09; H 3.67; W 2.87
K23: G 3.38; D 4.34; Y 2.29; V 3.42; S 3.63; Q 4.58
D15: Q 3.36; T 3.06; M 2.37; Y 2.84; H 2.72
R22: I 3.62; C 3.74; V 3.04; A 4.36; D 3.75; Q 3.96; K 3.47; S 3.56
E10: D 4.11; S 3.78; V 3.16; G 3.94; L 3.13; A 4.08; K 3.5
R14: N 3.83
D11: R 3.4; F 3.5; I 2.53; K 3.5; E 3.68; V 3.79
L12: K 4.19; R 3.86; A 4; S 4.44; E 3.29; N 4.24
V20: F 3.78; Q 4.09; G 3.39; K 4.19; T 4.4; R 3.99; L 4.16; P 2.36; N 4.37; A 4.24
R7: P 3.93; Q 3.93
I5: T 3.99; P 3.86; D 4.36; M 4.22

Variants of: B2
Test: as above
Settings: c terminus: native

Protein stability index: each site, then its substitutions
S1: N 2.19; C 2.69; Q 2.36; K 1.76; R 2.23; V 2.85; D 2.25; L 1.36; Y 4; G 2.03; I 1.56; F 1.92; W 3.14; H 2.46; M 1.96; E 3.87; T 2.04; P 2.94
M5: N 2.76; V 1.65; D 3.15; R 3.34; I 1.98; F 1.89; L 2.77; T 2.73; S 2.5; C 1.52; G 2.37; K 2.64; Y 2.17; A 3.14; P 3.15
D7: H 1.68; N 2.44; P 1.96; E 2.85; G 1.49; C 2.37; R 1.77; Q 2.44; S 1.61; W 1.49; T 2.27; I 1.04; L 1.72; K 1.46; Y 2; A 3.25; M 1.44; F 1.23
S4: F 1.98; W 2.01; D 2.58; Q 4.05; K 2.15; I 2.42; P 2.73; T 2.23; C 1.95; V 2.49; H 1.74; A 2.84; L 2.02; M 2.57; N 2.92; E 3.8; Y 2.42
R9: G 2.89; P 3.64; M 3.13; Q 3.39; N 2.73; V 2.38; D 3.69; F 3.11; S 2.4; Y 2.42; L 2.61; I 2.34; A 1.84; H 3.7; E 3.54; W 1.93; C 2.26
Q2: P 2.83; T 2.54; M 3.18; W 1.72; R 1.66; V 2.33; C 1.94; D 3.38; A 1.88; H 2.23; E 3.32; K 2.57; S 1.88; N 2.6; Y 1.89; I 2.75; G 2.07; L 1.5; F 1.31
Q8: T 2.09; E 2.6; N 2.68; M 1.39; W 3.03; A 2.03; R 1.78; P 2.13; S 2.28; K 2.68; V 2.33; D 2.35; I 1.94; F 1.73; C 1.37; Y 2.21; H 2.16; L 1.86; G 2.27
D12: K 1.71; F 1.8; L 2.44; H 1.64; A 2.31; C 1.56; I 1.75; E 2.15
W10: I 2.81; H 3.14; Y 2.55; C 3.12; D 3.44; M 2.4; N 3.39; S 3.37; V 2.17; K 3.75; F 2.31; Q 3.29; R 3.03; P 3.68; L 2.51
Q11: A 1.84; I 3.03; P 2.1; F 1.68; L 1.59; S 2.37; C 1.92; K 2.87; E 3.38; H 1.67; T 2.29; G 1.77; M 2.06; D 2.38; R 3.7; W 1.77; N 2.74; V 2.25
W6: A 3.27; T 4.02; N 3.52; V 3.01; D 4.13; F 2.55; L 3.09; H 2.51; P 3.18; E 4.03; R 3.29; C 3.04; S 3.08; Y 2.09; M 2.65; G 2.95; K 3.24; Q 3.48; I 2.56
V3: S 2.84; W 1.64; C 1.91; F 1.86; R 2.43; L 2.04; P 2.8; A 3.18; Y 2.27; E 2.9; H 3.28; D 2.81; Q 3.47; N 2.49; K 2.34; T 2.34; M 2.83; I 2.23
